From patent publication US20240247080A1, “GLP1/GIP/NPY2 RECEPTOR TRIPLE AGONISTS” (Boehringer Ingelheim International GmbH, priority 2022, published 2024)
Starred links: 1 amine or outer side, 2 acyl side, 3 side chain; linkers in the order of their positions; H or OH if unused. Non-standard residues stand in square brackets, D forms with d. Groups on a side chain read outwards from the residue. No end group written: not given here. *: point of attachment. C18 diacid = O=C(O)CCCCCCCCCCCCCCCCC(=O)*; γGlu = O=C(O)[C@H](CCC(=O)[*:2])N[*:1]; AEEA = NCCOCCOCC(=O)O; Aib = CC(C)(N)C(=O)O; Ahx = NCCCCCC(=O)O; OEG = OEG spacer

Tests used:
Test in all cases: cell-based or functional assay
human GLP-1 receptor = human GLP-1 receptor (human, UniProt P43220 24-463)
human GIP receptor = molecular target: T1, human GIP receptor (human, UniProt P48546 22-466)
T1 sequence (looked up): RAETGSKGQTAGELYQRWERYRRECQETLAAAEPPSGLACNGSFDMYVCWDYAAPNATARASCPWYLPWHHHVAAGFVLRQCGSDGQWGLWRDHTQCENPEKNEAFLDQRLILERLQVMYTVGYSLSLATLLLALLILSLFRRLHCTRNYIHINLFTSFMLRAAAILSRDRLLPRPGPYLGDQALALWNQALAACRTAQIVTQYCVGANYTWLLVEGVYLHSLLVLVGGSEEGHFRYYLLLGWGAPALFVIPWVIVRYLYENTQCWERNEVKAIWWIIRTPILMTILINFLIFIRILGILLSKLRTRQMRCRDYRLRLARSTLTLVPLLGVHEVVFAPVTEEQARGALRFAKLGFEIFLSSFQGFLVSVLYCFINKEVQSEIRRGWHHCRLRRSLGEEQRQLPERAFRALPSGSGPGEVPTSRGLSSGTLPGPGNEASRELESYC

[1] = molecular target: T2, human neuropeptide Y2 receptor (human, UniProt P49146 1-381)
T2 sequence (looked up): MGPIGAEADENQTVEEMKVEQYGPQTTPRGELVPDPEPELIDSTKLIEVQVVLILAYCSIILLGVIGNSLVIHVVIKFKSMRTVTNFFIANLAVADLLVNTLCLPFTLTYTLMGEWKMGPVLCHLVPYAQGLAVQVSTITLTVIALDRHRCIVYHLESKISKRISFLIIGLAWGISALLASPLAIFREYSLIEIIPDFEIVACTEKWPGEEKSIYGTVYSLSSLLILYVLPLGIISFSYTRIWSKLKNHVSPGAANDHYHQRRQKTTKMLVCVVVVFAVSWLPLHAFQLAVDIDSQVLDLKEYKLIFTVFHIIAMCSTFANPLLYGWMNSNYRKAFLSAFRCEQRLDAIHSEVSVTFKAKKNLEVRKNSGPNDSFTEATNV

Y[Aib]EGTFTSDYSI[Aib]LEKQAQ[Aib]AFVEWLIKGGPSEGASLRHYYNWLTRQRY-NH2 (not fully specified (residue 28); also: TFA salt) [Compound 296]
EC50 hGLP1R 0.5% hP (CreLuc) (human GLP-1 receptor): 0.11 nM | EC50 hGLP1R 100% hP (CreLuc) (human GLP-1 receptor): 3.5 nM | EC50 hGIPR 0.5% hP (CreLuc) (human GIP receptor): 1.39 nM | EC50 hGIPR 100% hP (CreLuc) (human GIP receptor): 1.11 nM | EC50 hNPY2R 0.5% hP (CreLuc) [1]: 14.1 nM | EC50 hNPY2R 100% hP (CreLuc) [1]: 56.5 nM

Y[Aib]EGTFTSDYSI[Aib]LEKQAQ[Aib]AFVEWLIK([Ahx-γGlu-γGlu-γGlu-γGlu-γGlu-γGlu-C18 diacid])GGPSEGASLRHYYNWLTRQRY-NH2 (also: TFA salt) [Compound 303]
EC50 hGLP1R 0.5% hP (CreLuc) (human GLP-1 receptor): 0.2 nM | EC50 hGLP1R 100% hP (CreLuc) (human GLP-1 receptor): 4.42 nM | EC50 hGIPR 0.5% hP (CreLuc) (human GIP receptor): 0.36 nM | EC50 hGIPR 100% hP (CreLuc) (human GIP receptor): 2.36 nM | EC50 hNPY2R 0.5% hP (CreLuc) [1]: 33.3 nM | EC50 hNPY2R 100% hP (CreLuc) [1]: 122 nM

Y[Aib]EGTFTSDYSI[Aib]LEKQAQ[Aib]AFVEWLIKGGPSEGASLRHYYNWLTRQRY-NH2 (not fully specified (residue 28); also: TFA salt) [Compound 295]
EC50 hGLP1R 0.5% hP (CreLuc) (human GLP-1 receptor): 0.14 nM | EC50 hGLP1R 100% hP (CreLuc) (human GLP-1 receptor): 3.53 nM | EC50 hGIPR 0.5% hP (CreLuc) (human GIP receptor): 0.3 nM | EC50 hGIPR 100% hP (CreLuc) (human GIP receptor): 0.98 nM | EC50 hNPY2R 0.5% hP (CreLuc) [1]: 10.9 nM | EC50 hNPY2R 100% hP (CreLuc) [1]: 30.2 nM

Y[Aib]EGTFTSDYSI[Aib]LEKQAQ[Aib]AFVEWLIK([OEG-OEG-Glu-Glu-Glu-C18 diacid])GGPSEGASLRHYYNWLTRQRY-NH2 (also: TFA salt) [Compound 298]
EC50 hGLP1R 0.5% hP (CreLuc) (human GLP-1 receptor): 0.11 nM | EC50 hGLP1R 100% hP (CreLuc) (human GLP-1 receptor): 5.22 nM | EC50 hGIPR 0.5% hP (CreLuc) (human GIP receptor): 0.13 nM | EC50 hGIPR 100% hP (CreLuc) (human GIP receptor): 1.27 nM | EC50 hNPY2R 0.5% hP (CreLuc) [1]: 12.1 nM | EC50 hNPY2R 100% hP (CreLuc) [1]: 66.5 nM

Y[Aib]EGTFTSDYSI[Aib]LEKQAQ[Aib]AFVEWLIK([γGlu-γGlu-γGlu-γGlu-C18 diacid])GGPSEGASLRHYYNWLTRQRY-NH2 (also: TFA salt) [Compound 294]
EC50 hGLP1R 0.5% hP (CreLuc) (human GLP-1 receptor): 0.08 nM | EC50 hGLP1R 100% hP (CreLuc) (human GLP-1 receptor): 3.2 nM | EC50 hGIPR 0.5% hP (CreLuc) (human GIP receptor): 0.21 nM | EC50 hGIPR 100% hP (CreLuc) (human GIP receptor): 0.89 nM | EC50 hNPY2R 0.5% hP (CreLuc) [1]: 14.2 nM | EC50 hNPY2R 100% hP (CreLuc) [1]: 55.2 nM

Y[Aib]EGTFTSDYSI[Aib]LEKQAQ[Aib]AFVEWLIK([AEEA-AEEA-γGlu-γGlu-γGlu-γGlu-C18 diacid])GGPSEGASLRHYYNWLTRQRY-NH2 (also: TFA salt) [Compound 297]
EC50 hGLP1R 0.5% hP (CreLuc) (human GLP-1 receptor): 0.12 nM | EC50 hGLP1R 100% hP (CreLuc) (human GLP-1 receptor): 3.74 nM | EC50 hGIPR 0.5% hP (CreLuc) (human GIP receptor): 0.25 nM | EC50 hGIPR 100% hP (CreLuc) (human GIP receptor): 0.93 nM | EC50 hNPY2R 0.5% hP (CreLuc) [1]: 14.4 nM | EC50 hNPY2R 100% hP (CreLuc) [1]: 40.5 nM

Y[Aib]EGTFTSDYSI[Aib]LEKQAQ[Aib]AFVEWLIK([AEEA-γGlu-γGlu-γGlu-C18 diacid])GGPSEGASLRHYYNWLTRQRY-NH2 (also: TFA salt) [Compound 300]
EC50 hGLP1R 0.5% hP (CreLuc) (human GLP-1 receptor): 0.11 nM | EC50 hGLP1R 100% hP (CreLuc) (human GLP-1 receptor): 6.33 nM | EC50 hGIPR 0.5% hP (CreLuc) (human GIP receptor): 0.16 nM | EC50 hGIPR 100% hP (CreLuc) (human GIP receptor): 1.81 nM | EC50 hNPY2R 0.5% hP (CreLuc) [1]: 20 nM | EC50 hNPY2R 100% hP (CreLuc) [1]: 89.3 nM

B1: Compound 292 (peptide)
peptide: YXEGTFTSDYSIXLEKQAQXAFVEWLIKGGPSEGASLRHYYNWLTRQRY
modifications: Aib at 2, 13, 20; K28 side chain acylated with C18DA-gGlu-gGlu-gGlu-gGlu-gGlu; C-terminal amide (NH2)
EC50 hGLP1R 0.5% hP (CreLuc) (human GLP-1 receptor): 0.13 nM | EC50 hGLP1R 100% hP (CreLuc) (human GLP-1 receptor): 5.01 nM | EC50 hGIPR 0.5% hP (CreLuc) (human GIP receptor): 0.16 nM | EC50 hGIPR 100% hP (CreLuc) (human GIP receptor): 2.46 nM | EC50 hNPY2R 0.5% hP (CreLuc) [1]: 19.9 nM | EC50 hNPY2R 100% hP (CreLuc) [1]: 70 nM
